Patent US20260258155A1 (TRIVENI BIO, published 2026)
Numbering of substitutions follows the chain as printed. One block for each binder: values may come before it.

Columns and labels:
[1] = target: T1, mouse KLK7 (mKLK7) (mouse, UniProt Q91VE3 26-249); assay: Biacore SPR, antibody captured on Protein A chip, single-cycle kinetics, 25 C
T1 construct: Enzymatically active in the protease assay
Experimental: All screening assays were performed at 25 C. The running buffer used was 20 mM HEPES, 300 mM NaCl, 0.01% Tween-20, pH 7.5. Antibodies (1 ug/mL) were captured on Fc2-4 of a Series S ProteinA Sensor Chip (Cytiva) flowing at 10 ul/mL for 30 s. Kinetics measurements were made in single-cycle kinetics mode with a series of 4-5 concentrations with top concentration of 25-100 nM and serial dilution 4-fold. Contact time was typically 300 s and dissociation time ranged from 1800-3600 s. Flow rate of 30 ul/mL was typically used. The sensor chip was regenerated with 10 mM glycine, pH 1.5 with a contact time of 30 s flowing at 50 ul/mL.

[2] = target: T1, mouse KLK7 (mKLK7); assay: cell-based or functional assay
[3] = target: human KLK7 (hKLK7), active form (human, UniProt P49862 30-253); assay: cell-based or functional assay
Sequence of human KLK7 (hKLK7), active form (P49862 30-253): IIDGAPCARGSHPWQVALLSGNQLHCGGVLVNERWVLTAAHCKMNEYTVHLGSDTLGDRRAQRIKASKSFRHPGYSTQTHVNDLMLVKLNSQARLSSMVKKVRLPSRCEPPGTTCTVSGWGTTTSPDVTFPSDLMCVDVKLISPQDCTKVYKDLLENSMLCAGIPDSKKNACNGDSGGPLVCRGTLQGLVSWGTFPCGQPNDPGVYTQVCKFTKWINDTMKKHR

T1 sequence (Q91VE3 26-249 limits assumed): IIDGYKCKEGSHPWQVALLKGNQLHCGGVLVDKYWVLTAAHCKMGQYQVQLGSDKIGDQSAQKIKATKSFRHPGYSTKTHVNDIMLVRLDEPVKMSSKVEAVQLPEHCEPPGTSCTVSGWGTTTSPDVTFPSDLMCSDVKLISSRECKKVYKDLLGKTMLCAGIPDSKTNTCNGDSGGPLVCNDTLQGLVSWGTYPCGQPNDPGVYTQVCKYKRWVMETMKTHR

Kd [1]: 0.0357 nM | mKLK7 IC50 (protease inhibition) [2]: 2.31 nM | mKLK7 IC90 (protease inhibition) [2]: 6.01 nM
B1: KLK7-L2-Ab2 (antibody, V domains shown)
VH: QVQLQESGPGLVKPSQTLSLTCTVSGGSISSGGYYWHWIRQHPGKGLEWIGYIYRSGYTYYNPSLKSRVTISVDTSKNQFSLKLSSVTAADTAVYYCARAKQLTTHRYFDYWGQGTLVTVSS
VL: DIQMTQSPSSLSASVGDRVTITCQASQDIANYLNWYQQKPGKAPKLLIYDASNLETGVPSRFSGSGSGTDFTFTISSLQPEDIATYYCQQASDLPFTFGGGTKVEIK

Kd [1]: 0.0101 nM | mKLK7 IC50 (protease inhibition) [2]: 1.63 nM | mKLK7 IC90 (protease inhibition) [2]: 6.51 nM
B2: KLK7-L2-Ab4 (antibody, V domains shown)
VH: B1 VH with Y35S, H37N, Y52S, Y58S, T105L, H106T
VL: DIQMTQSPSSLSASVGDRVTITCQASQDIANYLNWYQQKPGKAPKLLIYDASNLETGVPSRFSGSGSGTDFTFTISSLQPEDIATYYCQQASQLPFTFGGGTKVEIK

mKLK7 IC50 (protease inhibition) [2]: 1.49 nM | mKLK7 IC90 (protease inhibition) [2]: 4.88 nM | hKLK7 IC50 (protease inhibition) [3]: 0.833 nM | hKLK7 IC90 (protease inhibition) [3]: 3.39 nM
B3: KLK7-L2-Ab3 (antibody, V domains shown)
VH: B1 VH with Y35S, H37N, Y52S, Y58S, Q102A, F109V
VL: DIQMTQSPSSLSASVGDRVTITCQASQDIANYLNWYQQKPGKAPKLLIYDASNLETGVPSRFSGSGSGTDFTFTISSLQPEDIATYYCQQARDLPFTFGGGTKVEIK

Kd [1]: 0.0796 nM | mKLK7 IC90 (protease inhibition) [2]: 5.63 nM
B4: KLK7-L2-Ab1 (antibody, V domains shown)
VH: B1 VH with H37S, Y52S, R55Y, Y58S
VL: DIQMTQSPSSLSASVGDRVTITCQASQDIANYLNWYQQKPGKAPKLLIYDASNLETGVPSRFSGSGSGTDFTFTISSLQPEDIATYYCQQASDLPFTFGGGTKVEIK

Kd [1]: 0.018 nM | mKLK7 IC50 (protease inhibition) [2]: 1.91 nM | mKLK7 IC90 (protease inhibition) [2]: 6.52 nM
B5: KLK7-L2-Ab5 (antibody, V domains shown)
VH: B1 VH with H106S
VL: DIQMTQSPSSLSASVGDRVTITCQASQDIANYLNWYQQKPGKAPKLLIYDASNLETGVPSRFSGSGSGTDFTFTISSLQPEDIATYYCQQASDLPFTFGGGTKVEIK

Kd [1]: 0.0107 nM | mKLK7 IC50 (protease inhibition) [2]: 1.42 nM | mKLK7 IC90 (protease inhibition) [2]: 7.12 nM | hKLK7 IC50 (protease inhibition) [3]: 0.914 nM | hKLK7 IC90 (protease inhibition) [3]: 3.67 nM
B6: KLK7-L1-Ab4 (antibody, V domains shown)
VH: QVQLVQSGAEVKKPGASVKVSCKASGYTFTSEGIHWVRQAPGQGLEWMGSISASSGDTNYAQKLQGRVTMTTDTSTSTAYMELRSLRSDDTAVYYCARAAGYGARHWYFDLWGQGTMVTVSS
VL: DIQMTQSPSSLSASVGDRVTITCRASQSISSYLNWYQQKPGKAPKLLIYGASSLQSGVPSRFSGSGSGTDFTLTISSLQPEDFATYYCDQFYSTPPITFGGGTKVEIK

Kd [1]: 0.0354 nM | mKLK7 IC50 (protease inhibition) [2]: 3.42 nM | mKLK7 IC90 (protease inhibition) [2]: 19.8 nM | hKLK7 IC50 (protease inhibition) [3]: 1.69 nM | hKLK7 IC90 (protease inhibition) [3]: 6.11 nM
B7: KLK7-L1-Ab2 (antibody, V domains shown)
VH: B6 VH with T30G, S31P, E32Y, H35S, S50W, S54Y, H106W
VL: B6 VL with Q90G, F91S

Kd [1]: 0.0144 nM | mKLK7 IC50 (protease inhibition) [2]: 1.25 nM | mKLK7 IC90 (protease inhibition) [2]: 4.58 nM
B8: KLK7-L1-Ab6 (antibody, V domains shown)
VH: B6 VH with H106S
VL: B6 VL

Kd [1]: 0.017 nM | mKLK7 IC50 (protease inhibition) [2]: 1.35 nM | mKLK7 IC90 (protease inhibition) [2]: 7.25 nM | hKLK7 IC50 (protease inhibition) [3]: 1.23 nM | hKLK7 IC90 (protease inhibition) [3]: 4.66 nM
B9: KLK7-L1-Ab5 (antibody, V domains shown)
VH: B6 VH
VL: B6 VL with F91W

Kd [1]: 1.62 nM | mKLK7 IC50 (protease inhibition) [2]: 0.5 nM | mKLK7 IC90 (protease inhibition) [2]: 108 nM
B10: KLK7-L1-Ab1 (antibody, V domains shown)
VH: B6 VH with A16S, Y27G, T30S, S31N, E32Y, G33A, H35S, S50W, S54Y
VL: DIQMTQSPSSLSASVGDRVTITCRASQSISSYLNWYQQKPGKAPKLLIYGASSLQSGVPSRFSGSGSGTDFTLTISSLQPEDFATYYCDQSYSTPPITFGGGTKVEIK

Kd [1]: 0.0302 nM | mKLK7 IC50 (protease inhibition) [2]: 1.06 nM | mKLK7 IC90 (protease inhibition) [2]: 5.03 nM
B11: KLK7-L1-Ab7 (antibody, V domains shown)
VH: B6 VH with A99G, H106D
VL: B6 VL with F91R

Kd [1]: 0.0402 nM | mKLK7 IC50 (protease inhibition) [2]: 1.46 nM | mKLK7 IC90 (protease inhibition) [2]: 6.45 nM | hKLK7 IC50 (protease inhibition) [3]: 1.2 nM | hKLK7 IC90 (protease inhibition) [3]: 5.03 nM
B12: KLK7-L1-Ab3 (antibody, V domains shown)
VH: B6 VH with K63E
VL: B6 VL
